These results are taken from patent publication US6355785 (Aronex Pharmaceuticals, Inc.).

B1: T30743 (structured_DNA)
DNA: GTGGCGGGTGGGTGGGT
modifications: pPT
B2: T30747B (structured_DNA)
DNA: TGGGAGGTGGGTCTG
modifications: all phosphodiester, DMT at 3' end
B3: T30674 (structured_DNA)
DNA: GTGGTTGGTGTGGTTGGT
modifications: pPT (PS at first and last linkages)
B4: T30678 (structured_DNA)
DNA: GTGGTGGGTGGGTTGGT
modifications: pPT (PS at first and last linkages)
B5: T30576 (structured_DNA)
DNA: GTGGTGGGTGGGTGGGT
modifications: pPT; N5 = 5-iodo dU [n positions 5 = modified dU]
B6: T30697 (structured_DNA)
DNA: GTGGTGGGGTGGTGGGT
modifications: pPT (PS at first and last linkages)
B7: T30696 (structured_DNA)
DNA: GTGGGTGGTGGGTGGGT
modifications: pPT (PS at first and last linkages)
B8: T30701 (structured_DNA)
DNA: GTGGTGGGTGGGTGGGT
modifications: pPT; N13 = C-5 propynyl dU [n positions 13 = modified dU]
B9: T30661 (ssRNA)
RNA: GUGGUGGGUGGGUGGGU
modifications: pPT (PS at first and last linkages), RNA sugars
B10: T30571 (structured_DNA)
DNA: GTGGTGGGTGGGTGGGT
modifications: pPT; N5,N9,N13 = 5-bromo dU [n positions 5,9,13 = modified dU]
B11: T30699 (structured_DNA)
DNA: GTGGGTGGTGGGGTGGT
modifications: pPT (PS at first and last linkages)
B12: T30702 (structured_DNA)
DNA: GTGGTGGGTGGGTGGGT
modifications: pPT; N5,N13 = C-5 propynyl dU [n positions 5,13 = modified dU]
B13: T30698 (structured_DNA)
DNA: GTGGTGGGTGGGGTGGT
modifications: pPT (PS at first and last linkages)
B14: T30673 (structured_DNA)
DNA: GTGGTTGGTGTGGTTGG
modifications: pPT (PS at first and last linkages)
B15: T30700 (structured_DNA)
DNA: GTGGTGGGTGGGTGGGT
modifications: pPT; capital T = C-5 propynyl dU (position 5)
B16: T30744 (structured_DNA)
DNA: GTGGTGGGCGGGTGGGT
modifications: pPT
B17: T30578 (structured_DNA)
DNA: GTGGTGGGTGGGTGGGT
modifications: pPT; N13 = 5-iodo dU [n positions 13 = modified dU]
B18: 1232 random GATC (ssDNA)
DNA: GATCCATGTCAGTGACAC
modifications: PS all linkages, 3'-amine
B19: I100-21 (ssDNA)
DNA: GTGGTGGGTGGGTGGGTGGTGGGTGGTGGTTGTGGGTGGGTGGTG
modifications: PS all linkages, 3'-amine
B20: I100-07 (ssDNA)
DNA: B19 DNA
modifications: phosphodiester, 3'-amine
B21: 1174 (ssDNA)
DNA: GGGTGGGTGGGTGGGTGG
modifications: PS all linkages, 3'-amine
B22: I100-12 (ssDNA)
DNA: GTTGGGGGTTGTTGGTGGGGTGGTGG
modifications: PS all linkages, 3'-amine
B23: I100-00 (ssDNA)
DNA: GTTGGGGGTTGTTGGTGGGGTGGTGG
modifications: phosphodiester, 3'-propanolamine
B24: T30177 (AR177) (structured_DNA)
DNA: GTGGTGGGTGGGTGGGT
modifications: PS at the terminal 5' and 3' internucleoside linkages
B25: S935833 (structured_DNA)
DNA: GCGGGGCTCCATGGGGGTCG
modifications: PS pattern g*c*gggc*t*c*c*a*tggggg*t*c*g (as printed in table footnote)
B26: T30754 (structured_DNA)
DNA: GCGGGGCTCCATGGGGGTCG
modifications: pPT (PS at first and last linkages)
B27: T30748 (structured_DNA)
DNA: TGGGAGGTGGGTCTG
modifications: pPT (PS at first and last linkages)
B28: T30746 (structured_DNA)
DNA: GTGGCGGGCGGGCGGGT
modifications: pPT

The first data set concerns the target T1, HIV-1 integrase wild-type (IN1-288) (Human immunodeficiency virus 1, UniProt P12497 P12497:1148-1435). The experiment in a line: inhibition; 3'-process column; strand transfer column 0.055; row misprinted T30745.
Settings: not given
Turning to B1, 60 nM corresponded to half-maximal inhibition (IC50).

A further data set concerns the target T2, HIV-1 integrase wild-type (IN1-288) (Human immunodeficiency virus 1, UniProt P12497 P12497:1148-1435). As to the kind of experiment: inhibition; both activities 0.120. The following applies: intermolecular G4.
The molecule B2 registered an IC50 of 120 nM.

A further data set deals with T1, HIV-1 integrase wild-type (IN1-288). The experiment in a line: inhibition.
Settings: not given
As to B3, it took 610 nM to reach half-maximal inhibition (IC50).

Molecule B4 returned a concentration for half-maximal inhibition (IC50) of 120 nM.

Molecule B5 gave an IC50 of 50 nM.

Molecule B6 gave an IC50 of 13 nM.

In the case of B7, inhibition was half-maximal at 13 nM (IC50).

The molecule B8 had an IC50 of 30 nM.

With B9, the half-inhibitory concentration (IC50) was 84 nM.

B10 registered a half-maximal inhibitory concentration (IC50) of 50 nM.

B11 displayed an IC50 of 50 nM.

As to B12, the concentration for half-maximal inhibition (IC50) came out at 30 nM.

Molecule B13 gave an IC50 of 16 nM.

On to B14, for which half-maximal inhibition (IC50) was put at 600 nM.

B15 showed a half-inhibitory concentration (IC50) of 40 nM.

In turn, B16 yielded a half-maximal inhibitory concentration (IC50) of 60 nM.

As to B17, it took 50 nM to reach half-maximal inhibition (IC50).

Another data set addresses T3, HIV-1 reverse transcriptase (Human immunodeficiency virus 1, UniProt P03366;P03366 P03366:600-1159,P03366:600-1039). The experiment in a line: inhibition.
Settings: not given
Take B18: the affinity corresponds to a Ki of 560 nM.

For B19, the inhibitory constant (Ki) was determined as 1 nM.

Turning to B20, the inhibition constant Ki amounted to 137 nM.

As for B21, the Ki stood at 15 nM.

For the molecule B22, affinity was put at a Ki of 5 nM.

B23: the affinity corresponds to a Ki of 370 nM.

The target of another data set is T4, HIV-1 integrase IN1-212 (C-terminal deletion) (HIV-1, UniProt P04585 P04585:1148-1359).
T4 chain: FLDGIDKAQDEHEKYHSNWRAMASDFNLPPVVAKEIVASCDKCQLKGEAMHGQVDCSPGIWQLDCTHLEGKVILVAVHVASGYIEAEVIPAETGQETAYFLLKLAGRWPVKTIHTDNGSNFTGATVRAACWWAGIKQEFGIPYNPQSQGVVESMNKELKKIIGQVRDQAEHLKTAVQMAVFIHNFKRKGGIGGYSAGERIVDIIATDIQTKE
The experiment in a line: inhibition; disintegration assay, Mn2+, 30 C. The following applies: intramolecular G4.
In turn, B24 had an IC50 of 600 nM.

The next data set has as its target T2, HIV-1 integrase wild-type (IN1-288). The experiment in a line: inhibition; 3'-process column; strand transfer column 0.060 (headings appear swapped). The following applies: intermolecular G4.
On to B25, for which the IC50 came to 45 nM.

A further data set concerns the target T1, HIV-1 integrase wild-type (IN1-288). As to the kind of experiment: inhibition; both activities 0.120; row misprinted T30745.
Settings: not given
The molecule B26 came in with an IC50 of 120 nM.

The target of the next data set is T3, HIV-1 reverse transcriptase. The experiment in a line: inhibition; printed as ID50.
Settings: not given
Take B18: the IC50 turned out to be 45 nM.

For B19, the IC50 was found to be 4 nM.

B20: the IC50 was found to be 2500 nM.

In the case of B21, the concentration for half-maximal inhibition (IC50) came to 15.4 nM.

With B22, inhibition was half-maximal at 15 nM (IC50).

As to B23, inhibition was half-maximal at 5000 nM (IC50).

A further data set deals with T1, HIV-1 integrase wild-type (IN1-288). The experiment in a line: inhibition; both activities 0.125.
Settings: not given
With B27, the concentration for half-maximal inhibition (IC50) amounted to 125 nM.

For a further data set the target is unchanged. As to the kind of experiment: inhibition; 3'-process column; strand transfer column 0.150.
Settings: not given
Take B28: the IC50 was 150 nM.
